The labels stand for the following.
T1: 6His-Cdc24_(428-854) _(K801A) (yeast, UniProt P11433 428-854, K801A)
T1 sequence: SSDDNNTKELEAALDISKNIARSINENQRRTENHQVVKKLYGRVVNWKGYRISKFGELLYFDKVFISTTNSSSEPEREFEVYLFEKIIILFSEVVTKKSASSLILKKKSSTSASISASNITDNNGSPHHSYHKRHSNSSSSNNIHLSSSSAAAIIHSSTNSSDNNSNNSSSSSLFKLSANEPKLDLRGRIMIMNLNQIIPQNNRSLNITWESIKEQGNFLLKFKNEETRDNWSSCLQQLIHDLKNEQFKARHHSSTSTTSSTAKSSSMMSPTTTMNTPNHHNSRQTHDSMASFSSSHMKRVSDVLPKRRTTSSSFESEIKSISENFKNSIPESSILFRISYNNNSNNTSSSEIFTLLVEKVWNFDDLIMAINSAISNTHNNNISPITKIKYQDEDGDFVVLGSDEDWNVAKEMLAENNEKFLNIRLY

T2: Cdc24_(428-854) _(K525E) (yeast, UniProt P11433 428-854, K525E)
T2 sequence: T1 sequence with K98E, A374K

T3: Cdc24_(428-854) _(K525E) _(K801A) (yeast, UniProt P11433 428-854, K525E | K801A)
T3 sequence: T1 sequence with K98E

B1: 6His-Cdc24_(428-854) (domain or fragment)
chain: T1 sequence with A374K
B2: GST-Cdc11 (natural protein)
chain: MSGIIDASSALRKRKHLKRGITFTVMIVGQSGSGRSTFINTLCGQQVVDTSTTILLPTDTSTEIDLQLREETVELEDDEGVKIQLNIIDTPGFGDSLDNSPSFEIISDYIRHQYDEILLEESRVRRNPRFKDGRVHCCLYLINPTGHGLKEIDVEFIRQLGSLVNIIPVISKSDSLTRDELKLNKKLIMEDIDRWNLPIYNFPFDEDEISDEDYETNMYLRTLLPFAIIGSNEVYEMGGDVGTIRGRKYPWGILDVEDSSISDFVILRNALLISHLHDLKNYTHEILYERYRTEALSGESVAAESIRPNLTKLNGSSSSSTTTRRNTNPFKQSNNINNDVLNPASDMHGQSTGENNETYMTREEQIRLEEERLKAFEERVQQELLLKRQELLQREKELREIEARLEKEAKIKQEE
B3: 6His-Cdc11-SNAP (natural protein)
chain: B2 chain
modifications: biotinylated with BG-Biotin (on the SNAP tag)

Changes are numbered by the printed parent chain.

The target of one assay is SNAP-tagged septin rods (yeast, UniProt P32458;P32468;P32457;P25342). Briefly: SPR.
Sequence of SNAP-tagged septin rods (P32468 whole entry, chain 2 of 3): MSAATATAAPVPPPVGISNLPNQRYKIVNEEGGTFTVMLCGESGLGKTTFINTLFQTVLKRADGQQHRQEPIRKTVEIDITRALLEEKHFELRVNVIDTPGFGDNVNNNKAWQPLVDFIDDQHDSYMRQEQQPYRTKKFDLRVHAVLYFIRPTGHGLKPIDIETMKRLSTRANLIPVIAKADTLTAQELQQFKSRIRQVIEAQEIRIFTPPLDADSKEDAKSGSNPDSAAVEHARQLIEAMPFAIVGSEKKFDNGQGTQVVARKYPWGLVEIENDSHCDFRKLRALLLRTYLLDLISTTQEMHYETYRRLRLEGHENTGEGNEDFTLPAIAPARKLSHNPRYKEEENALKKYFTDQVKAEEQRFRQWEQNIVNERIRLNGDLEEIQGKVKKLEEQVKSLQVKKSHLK
Sequence of SNAP-tagged septin rods (P32457 whole entry, chain 3 of 3): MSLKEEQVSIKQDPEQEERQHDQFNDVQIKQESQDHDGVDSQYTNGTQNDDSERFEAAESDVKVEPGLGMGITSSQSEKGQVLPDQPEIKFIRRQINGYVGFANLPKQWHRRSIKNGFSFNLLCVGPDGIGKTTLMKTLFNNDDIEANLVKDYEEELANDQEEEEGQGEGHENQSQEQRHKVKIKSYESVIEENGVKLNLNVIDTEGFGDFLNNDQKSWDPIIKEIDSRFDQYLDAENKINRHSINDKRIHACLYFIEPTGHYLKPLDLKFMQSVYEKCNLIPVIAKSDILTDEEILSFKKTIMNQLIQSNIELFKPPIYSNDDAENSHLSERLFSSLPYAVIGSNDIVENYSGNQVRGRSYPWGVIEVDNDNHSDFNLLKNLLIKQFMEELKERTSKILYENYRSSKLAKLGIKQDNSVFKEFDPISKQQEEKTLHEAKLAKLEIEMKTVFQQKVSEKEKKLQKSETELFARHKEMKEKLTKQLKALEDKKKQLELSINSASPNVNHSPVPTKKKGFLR
Sequence of SNAP-tagged septin rods (P25342 whole entry, chain 4 of 3): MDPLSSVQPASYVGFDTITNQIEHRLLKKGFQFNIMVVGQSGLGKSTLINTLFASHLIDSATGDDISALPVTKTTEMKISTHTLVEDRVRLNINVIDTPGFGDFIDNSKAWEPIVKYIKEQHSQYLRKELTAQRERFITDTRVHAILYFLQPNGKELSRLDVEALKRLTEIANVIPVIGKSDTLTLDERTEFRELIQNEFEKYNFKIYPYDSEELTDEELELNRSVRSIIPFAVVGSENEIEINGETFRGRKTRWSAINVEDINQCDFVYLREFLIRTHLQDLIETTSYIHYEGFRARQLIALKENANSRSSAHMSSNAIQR
For assay [1], the target named is B1. Briefly: pull-down.
Assay [2] deals with B1. Briefly: SPR.
The target of assay [3] is T1, 6His-Cdc24_(428-854) _(K801A). Nature of the assay: SPR. (Surface plasmon resonance follows binding to a sensor surface in real time, without labels.)
The target in the next assay is T2, Cdc24_(428-854) _(K525E). Briefly: SPR.
In assay [4] the target is T3, Cdc24_(428-854) _(K525E) _(K801A). Briefly: SPR.

Broadly, the Kd is the free concentration of one partner at which half of the binding sites on the other are occupied at equilibrium, for simple one-to-one binding. Higher therefore signals a looser complex. B1 gave a Kd with SNAP-tagged septin rods of 351 nM.

Take B2: the binding result in the assay with 6His-Cdc24_(428-854) [1] is given as “binds”.

In the assay with 6His-Cdc24_(428-854) [2], B3 yielded an equilibrium dissociation constant (Kd) of 257 nM. The binding result (in assay [3]; in the assay with Cdc24_(428-854) _(K525E); in assay [4]) was “binds” each time.

Source of the values: paper doi:10.1101/719815 (bioRxiv, 2019).
